The results in this text go back to patent US20210246166A1 (Bayer, published 2021).

Holding throughout (assay): cell-based or functional assay
The target of assay [1] is T1, recombinant human MASP1 active protease (amino acids 297-699, C-terminal His Tag) (human, UniProt P48740 297-699).
T1 sequence: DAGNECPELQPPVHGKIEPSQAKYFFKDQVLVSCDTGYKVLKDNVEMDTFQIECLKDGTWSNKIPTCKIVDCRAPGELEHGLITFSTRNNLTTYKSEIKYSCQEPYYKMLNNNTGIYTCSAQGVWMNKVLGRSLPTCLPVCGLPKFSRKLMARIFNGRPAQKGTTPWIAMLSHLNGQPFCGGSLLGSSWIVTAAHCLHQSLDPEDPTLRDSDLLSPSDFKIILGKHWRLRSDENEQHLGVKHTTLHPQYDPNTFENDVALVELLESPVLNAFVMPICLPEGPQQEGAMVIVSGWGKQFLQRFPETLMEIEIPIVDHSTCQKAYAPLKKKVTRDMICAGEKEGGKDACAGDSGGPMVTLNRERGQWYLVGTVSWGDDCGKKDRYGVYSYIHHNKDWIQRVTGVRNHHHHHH

Assay [2] concerns the target recombinant human MASP2 active protease (amino acids 297-686, C-terminal His Tag) (human, UniProt O00187 297-686).
For assay [3], the target named is T2, Recombinant human MASP1 enzyme (fragment corresponding to amino acids 297-699, C-terminal His Tag) (human, UniProt P48740 297-699).
T2 sequence: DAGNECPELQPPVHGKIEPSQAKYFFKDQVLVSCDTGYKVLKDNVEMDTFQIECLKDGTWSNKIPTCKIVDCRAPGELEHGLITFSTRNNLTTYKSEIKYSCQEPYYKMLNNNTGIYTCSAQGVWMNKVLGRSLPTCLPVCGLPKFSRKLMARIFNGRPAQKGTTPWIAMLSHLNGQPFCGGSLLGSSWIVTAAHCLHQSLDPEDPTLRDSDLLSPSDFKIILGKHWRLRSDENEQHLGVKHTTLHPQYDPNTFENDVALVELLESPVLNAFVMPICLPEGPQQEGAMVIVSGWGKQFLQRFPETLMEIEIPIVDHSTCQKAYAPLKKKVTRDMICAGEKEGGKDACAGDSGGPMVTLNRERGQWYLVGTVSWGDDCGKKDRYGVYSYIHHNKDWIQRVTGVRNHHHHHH

Numbered stars: 1 amine (or outer) side, 2 acyl side, 3 side chain; on linkers, the order of the positions; unused ones are H or OH. Bridge positions count the residues as written; N and C are the ends. Square brackets hold non-standard residues; d marks the D form. Ends that are not written are not given here. (S)‑3‑(2H-tetrazol-5-yl)propanoic acid = (S)-3-(2H-tetrazol-5-yl)propanoic acid; Phe(2,5-diF) = O=C([C@H](Cc1cc(F)ccc1F)N[*:1])[*:2]; PEG9 = NCCOCCOCCOCCOCCOCCOCCOCCOCCOCCC(=O)O; Pro(4-spirocPr) = O=C(O)[C@@H]1CC2(CC2)CN1; Oic = O=C(O)[C@@H]1C[C@@H]2CCCC[C@@H]2N1; tBuAla = CC(C)(C)C[C@H](N)C(=O)O; Pen = CC(C)(S)[C@H](N)C(=O)O; NMeC = CN[C@@H](CS)C(=O)O; NMeA = CN[C@@H](C)C(=O)O; PEG2 = NCCOCCOCCC(=O)O; Sar = CNCC(=O)O

Sequence of recombinant human MASP2 active protease (amino acids 297-686, C-terminal His Tag) (O00187 other isoform, or with tags, fused parts or gaps limits assumed): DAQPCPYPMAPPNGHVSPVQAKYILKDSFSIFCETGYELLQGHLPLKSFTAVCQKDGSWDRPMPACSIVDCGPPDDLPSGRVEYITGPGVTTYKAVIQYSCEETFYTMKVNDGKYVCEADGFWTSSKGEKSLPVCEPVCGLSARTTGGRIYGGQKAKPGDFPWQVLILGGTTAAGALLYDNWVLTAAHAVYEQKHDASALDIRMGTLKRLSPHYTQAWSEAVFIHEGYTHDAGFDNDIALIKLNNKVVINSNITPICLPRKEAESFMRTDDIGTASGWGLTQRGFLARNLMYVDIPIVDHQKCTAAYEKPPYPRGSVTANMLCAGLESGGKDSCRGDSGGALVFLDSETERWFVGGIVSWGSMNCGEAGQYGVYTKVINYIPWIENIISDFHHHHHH

B1: KIC+SRS-((tBu)A)-PPI-((N-Me)C)+IPD-NH2 (peptide)
peptide: KICSRS[tBuAla]PPI[NMeC]IPD-NH2
modifications: disulfide 3-11; N-terminus assumed
SMILES: CC[C@H](C)[C@H](NC(=O)[C@@H](N)CCCCN)C(=O)N[C@H]1CSSC[C@@H](C(=O)N[C@H](C(=O)N2CCC[C@H]2C(=O)N[C@@H](CC(=O)O)C(N)=O)[C@@H](C)CC)N(C)C(=O)[C@H]([C@@H](C)CC)NC(=O)[C@@H]2CCCN2C(=O)[C@@H]2CCCN2C(=O)[C@H](CC(C)(C)C)NC(=O)[C@H](CO)NC(=O)[C@H](CCCNC(=N)N)NC(=O)[C@H](CO)NC1=O
As to B1, the “human MASP1 IC50” value in assay [1] was determined as 1.65 nM. Also, in assay [2], the “human MASP2 IC50” value was determined as 120 nM. For [Sar]ICSRS[tBuAla]PPI[Pen]IP[(S)‑3‑(2H-tetrazol-5-yl)propanoic acid]-NH2 (disulfide 3-11) [((N-Me)G)-IC+SRS-((tBu)A)-PPI-(Pen)+IP-((S)-3-(2H-tetrazol-5-yl)propanoic acid)-NH2], in that order: 1.8 nM and 36 nM.

B2: AIC+SRS-((tBu)A)-P-((6S)-5-Azaspiro[2.4]heptane-6-carboxylic acid)-I-((N-Me)C)+IPD-NH2 (peptide)
peptide: AICSRS[tBuAla]P[Pro(4-spirocPr)]I[NMeC]IPD-NH2
modifications: disulfide 3-11; N-terminus assumed
SMILES: CC[C@H](C)[C@H](NC(=O)[C@H](C)N)C(=O)N[C@H]1CSSC[C@@H](C(=O)N[C@H](C(=O)N2CCC[C@H]2C(=O)N[C@@H](CC(=O)O)C(N)=O)[C@@H](C)CC)N(C)C(=O)[C@H]([C@@H](C)CC)NC(=O)[C@@H]2CC3(CC3)CN2C(=O)[C@@H]2CCCN2C(=O)[C@H](CC(C)(C)C)NC(=O)[C@H](CO)NC(=O)[C@H](CCCNC(=N)N)NC(=O)[C@H](CO)NC1=O
As for B2, in assay [1], the “human MASP1 IC50” value turned out to be 1.8 nM. Besides, the “human MASP2 IC50” value in assay [2] was found to be 40 nM.

B3: AIC+SRSLP-((6S)-5-Azaspiro[2.4]heptane-6-carboxylic acid)-I-(Pen)+IPD-OH (peptide)
peptide: AICSRSLP[Pro(4-spirocPr)]I[Pen]IPD-OH
modifications: disulfide 3-11; N-terminus assumed
SMILES: CC[C@H](C)[C@H](NC(=O)[C@H](C)N)C(=O)N[C@H]1CSSC(C)(C)[C@@H](C(=O)N[C@H](C(=O)N2CCC[C@H]2C(=O)N[C@@H](CC(=O)O)C(=O)O)[C@@H](C)CC)NC(=O)[C@H]([C@@H](C)CC)NC(=O)[C@@H]2CC3(CC3)CN2C(=O)[C@@H]2CCCN2C(=O)[C@H](CC(C)C)NC(=O)[C@H](CO)NC(=O)[C@H](CCCNC(=N)N)NC(=O)[C@H](CO)NC1=O
Take B3: the “human MASP1 IC50” value in assay [1] is 1.65 nM. The “human MASP2 IC50” value in assay [2] is 26 nM.

B4: AIC+SRS-((tBu)A)-P-((6S)-5-Azaspiro[2.4]heptane-6-carboxylic acid)-I-(Pen)+IPD-OH (peptide)
peptide: AICSRS[tBuAla]P[Pro(4-spirocPr)]I[Pen]IPD-OH
modifications: disulfide 3-11; N-terminus assumed
SMILES: CC[C@H](C)[C@H](NC(=O)[C@H](C)N)C(=O)N[C@H]1CSSC(C)(C)[C@@H](C(=O)N[C@H](C(=O)N2CCC[C@H]2C(=O)N[C@@H](CC(=O)O)C(=O)O)[C@@H](C)CC)NC(=O)[C@H]([C@@H](C)CC)NC(=O)[C@@H]2CC3(CC3)CN2C(=O)[C@@H]2CCCN2C(=O)[C@H](CC(C)(C)C)NC(=O)[C@H](CO)NC(=O)[C@H](CCCNC(=N)N)NC(=O)[C@H](CO)NC1=O
Take B4: the “human MASP1 IC50” value in assay [1] stood at 1.57 nM. The “human MASP2 IC50” value in assay [2] came out at 17.7 nM. Consider [Sar]ICSRS[tBuAla]PPI[Pen]IP-{PEG9-NH2} (disulfide 3-11) [((N-Me)G)-IC+SRS-((tBu)A)-PPI-(Pen)+IP-(PEG9(31 atoms))-NH2], for which the “human MASP1 IC50” value in assay [1] is 1.8 nM. Also, in assay [2], the “human MASP2 IC50” value came to 73 nM.

B5: AIC+SRS-((tBu)A)-PPIC+I-NH2 (peptide)
peptide: AICSRS[tBuAla]PPICI-NH2
modifications: disulfide 3-11; N-terminus assumed
SMILES: CC[C@H](C)[C@H](NC(=O)[C@@H]1CSSC[C@H](NC(=O)[C@@H](NC(=O)[C@H](C)N)[C@@H](C)CC)C(=O)N[C@@H](CO)C(=O)N[C@@H](CCCNC(=N)N)C(=O)N[C@@H](CO)C(=O)N[C@@H](CC(C)(C)C)C(=O)N2CCC[C@H]2C(=O)N2CCC[C@H]2C(=O)N[C@@H]([C@@H](C)CC)C(=O)N1)C(N)=O
In the case of B5, the “human MASP1 IC50” value in assay [1] was determined as 1.7 nM. For the same molecule, the “human MASP2 IC50” value in assay [2] stood at 120 nM.

B6: RIC+SRS-((tBu)A)-PPI-((N-Me)C)+I-NH2 (peptide)
peptide: RICSRS[tBuAla]PPI[NMeC]I-NH2
modifications: disulfide 3-11; N-terminus assumed
SMILES: CC[C@H](C)[C@H](NC(=O)[C@@H]1CSSC[C@H](NC(=O)[C@@H](NC(=O)[C@@H](N)CCCNC(=N)N)[C@@H](C)CC)C(=O)N[C@@H](CO)C(=O)N[C@@H](CCCNC(=N)N)C(=O)N[C@@H](CO)C(=O)N[C@@H](CC(C)(C)C)C(=O)N2CCC[C@H]2C(=O)N2CCC[C@H]2C(=O)N[C@@H]([C@@H](C)CC)C(=O)N1C)C(N)=O
For B6, the “human MASP1 IC50” value in assay [1] came out at 1.7 nM. In assay [2], the “human MASP2 IC50” value worked out at 87 nM. Take AICSRS[tBuAla]PPI[NMeC]IPD-NH2 (disulfide 3-11; also: HCl salt) [AIC+SRS-((tBu)A)-PPI-((N-Me)C)+IPD-NH2 (HCl salt)]: in assay [1], the “human MASP1 IC50” value was 1.53 nM. Further, in assay [2], the “human MASP2 IC50” value stood at 140 nM.

B7: ((N-Me)A)-IC+SRS-((tBu)A)-P-(Oic)-I-(Pen)+I-NH2 (peptide)
peptide: [NMeA]ICSRS[tBuAla]P[Oic]I[Pen]I-NH2
modifications: disulfide 3-11; N-terminus assumed
SMILES: CC[C@H](C)[C@H](NC(=O)[C@H]1NC(=O)[C@H]([C@@H](C)CC)NC(=O)[C@@H]2C[C@@H]3CCCC[C@@H]3N2C(=O)[C@@H]2CCCN2C(=O)[C@H](CC(C)(C)C)NC(=O)[C@H](CO)NC(=O)[C@H](CCCNC(=N)N)NC(=O)[C@H](CO)NC(=O)[C@@H](NC(=O)[C@@H](NC(=O)[C@H](C)NC)[C@@H](C)CC)CSSC1(C)C)C(N)=O
As for B7, the “human MASP1 IC50” value in assay [1] was 1.8 nM. Also, the “human MASP2 IC50” value in assay [2] stood at 76 nM. For [Sar]ICSRS[tBuAla]PPI[Pen]IP[PEG2]-NH2 (disulfide 3-11; also: HCl salt) [((N-Me)G)-IC+SRS-((tBu)A)-PPI-(Pen)+IP-(PEG1(10 atoms))-NH2 (HCl salt)], in assay [1], the “human MASP1 IC50” value is 1.7 nM. Further, the “human MASP2 IC50” value in assay [2] amounted to 31 nM.

B8: ((N-Me)G)-IC+SRS-((2,5-Difluoro)F)-PPI-(Pen)+IPD-OH (peptide)
peptide: [Sar]ICSRS[Phe(2,5-diF)]PPI[Pen]IPD-OH
modifications: disulfide 3-11; N-terminus assumed
SMILES: CC[C@H](C)[C@H](NC(=O)CNC)C(=O)N[C@H]1CSSC(C)(C)[C@@H](C(=O)N[C@H](C(=O)N2CCC[C@H]2C(=O)N[C@@H](CC(=O)O)C(=O)O)[C@@H](C)CC)NC(=O)[C@H]([C@@H](C)CC)NC(=O)[C@@H]2CCCN2C(=O)[C@@H]2CCCN2C(=O)[C@H](Cc2cc(F)ccc2F)NC(=O)[C@H](CO)NC(=O)[C@H](CCCNC(=N)N)NC(=O)[C@H](CO)NC1=O
Turning to B8, the “human MASP1 IC50” value in assay [3] was found to be 18 nM.

B9: AIC+SRS-((tBu)A)-P-((6S)-5-Azaspiro[2.4]heptane-6-carboxylic acid)-I-(Pen)+IPD-NH2 (peptide)
peptide: AICSRS[tBuAla]P[Pro(4-spirocPr)]I[Pen]IPD-NH2
modifications: disulfide 3-11; N-terminus assumed
SMILES: CC[C@H](C)[C@H](NC(=O)[C@H](C)N)C(=O)N[C@H]1CSSC(C)(C)[C@@H](C(=O)N[C@H](C(=O)N2CCC[C@H]2C(=O)N[C@@H](CC(=O)O)C(N)=O)[C@@H](C)CC)NC(=O)[C@H]([C@@H](C)CC)NC(=O)[C@@H]2CC3(CC3)CN2C(=O)[C@@H]2CCCN2C(=O)[C@H](CC(C)(C)C)NC(=O)[C@H](CO)NC(=O)[C@H](CCCNC(=N)N)NC(=O)[C@H](CO)NC1=O
B9: in assay [1], the “human MASP1 IC50” value was determined as 1.83 nM. In assay [2], the “human MASP2 IC50” value was 24.5 nM.
